Series [1] relates to HeLa Kyoto. Description: solubility in G1/S (NP-40 vs SDS abundance) (log2 ratio); higher = more soluble. The settings on record: cell cycle stage: G1/S.
Series [2] has as its system HeLa Kyoto. Description: melting temperature (median over replicates), in situ; higher = more thermally stable.
For series [3], the system named is HeLa Kyoto. Description: solubility change mitosis vs G1/S (difference of NP-40 vs SDS log2 ratios) (log2 ratio difference); higher = more soluble in mitosis.
For series [4], the system named is HeLa Kyoto. In words: thermal stability score vs G1/S (z-score of summed log2 fold changes over temperatures); higher = more thermally stable than in G1/S.
[5] abbreviates: cell cycle stage: early G1 (4.5 h after nocodazole release).

These results are taken from the supplement of paper PMC5998384.
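For melting temperature (median over replicates), in situ in this document: HeLa Kyoto cells synchronized by double thymidine or nocodazole block, proteins quantified by TMT10plex mass spectrometry, three independent biological replicates.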
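For solubility change mitosis vs G1/S (difference of NP-40 vs SDS log2 ratios) in this document: synchronized HeLa Kyoto cells (double thymidine block for G1/S, nocodazole release for mitosis), protein amounts in NP-40 versus SDS lysates quantified by mass spectrometry, three biological replicates.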
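For solubility in G1/S (NP-40 vs SDS abundance) in this document: HeLa Kyoto cells arrested at G1/S by double thymidine block, proteins quantified by TMT10plex mass spectrometry in mild NP-40 versus SDS extracts, three biological replicates.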
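For thermal stability score vs G1/S (z-score of summed log2 fold changes over temperatures) in this document: synchronized HeLa Kyoto cells, proteins quantified by TMT10plex mass spectrometry, three biological replicates, mitosis taken 0.5 h after nocodazole release, G1/S directly after double thymidine block.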

Consider “MFAKAFRVKSNTAIKGSDRRKLRADVTTAFPTLGTDQVSELVPGKEELNIVKLYAHKGDAVTVYVSGGNPILFELEKNLYPTVYTLWSYPDLLPTFTTWPLVLEKLVGGADLMLPGLVMPPAGLPQVQKGDLCAISLVGNRAPVAIGVAAMSTAEMLTSGLKGRGFSVLHTYQDHLWRSGNKSSPPSIAPLALDSADLSEEKGSVQMDSTLQGDMRHMTLEGEEENGEVHQAREDKSLSEAPEDTSTRGLNQDSTDSKTLQEQMDELLQQCFLHALKCRVKKADLPLLTSTFLGSHMFSCCPEGRQLDIKKSSYKKLSKFLQQMQQEQIIQVKELSKGVESIVAVDWKHPRITSFVIPEPSPTSQTIQEGSREQPYHPPDIKPLYCVPASMTLLFQESGHKKGSFLEGSEVRTIVINYAKKNDLVDADNKNLVRLDPILCDCILEKNEQHTVMKLPWDSLLTRCLEKLQPAYQVTLPGQEPIVKKGRICPIDITLAQRASNKKVTVVRNLEAYGLDPYSVAAILQQRCQASTTVNPAPGAKDSLQVQIQGNQVHHLGWLLLEEYQLPRKHIQGLEKALKPGKKK [EIF2D]”, for which the “solubility in G1/S (log2)” value in series [1] amounted to 0.234. Also, the melting temperature in series [2] (cell cycle stage: G1/S) and in series [2] (cell cycle stage: mitosis) was 48.3 °C throughout. Moreover, in series [3], the “solubility change mitosis (log2)” value is -0.0853. Further, the thermal stability score stood at 0.861 in series [4] (setting [5]) and 1.5 in series [4] (cell cycle stage: mitosis).
“MFAKATRNFLREVDADGDLIAVSNLNDSDKLQLLSLVTKKKRFWCWQRPKYQFLSLTLGDVLIEDQFPSPVVVESDFVKYEGKFANHVSGTLETALGKVKLNLGGSSRVESQSSFGTLRKQEVDLQQLIRDSAERTINLRNPVLQQVLEGRNEVLCVLTQKITTMQKCVISEHMQVEEKCGGIVGIQTKTVQVSATEDGNVTKDSNVVLEIPAATTIAYGVIELYVKLDGQFEFCLLRGKQGGFENKKRIDSVYLDPLVFREFAFIDMPDAAHGISSQDGPLSVLKQATLLLERNFHPFAELPEPQQTALSDIFQAVLFDDELLMVLEPVCDDLVSGLSPTVAVLGELKPRQQQDLVAFLQLVGCSLQGGCPGPEDAGSKQLFMTAYFLVSALAEMPDSAAALLGTCCKLQIIPTLCHLLRALSDDGVSDLEDPTLTPLKDTERFGIVQRLFASADISLERLKSSVKAVILKDSKVFPLLLCITLNGLCALGREHS [DFNA5]”: the “solubility in G1/S (log2)” value in series [1] is -0.0213. Also, the melting temperature amounted to 52.8 °C in series [2] (cell cycle stage: G1/S) and 53.7 °C in series [2] (cell cycle stage: mitosis). In addition, the “solubility change mitosis (log2)” value in series [3] is -0.126. Also, the thermal stability score came to 1.33 in series [4] (setting [5]) and 2.07 in series [4] (cell cycle stage: mitosis).
For the sequence “MFCEKAMELIRELHRAPEGQLPAFNEDGLRQVLEEMKALYEQNQSDVNEAKSGGRSDLIPTIKFRHCSLLRNRRCTVAYLYDRLLRIRALRWEYGSVLPNALRFHMAAEEMEWFNNYKRSLATYMRSLGGDEGLDITQDMKPPKSLYIEVRCLKDYGEFEVDDGTSVLLKKNSQHFLPRWKCEQLIRQGVLEHILS [GINS1]”, the “solubility in G1/S (log2)” value in series [1] was -0.0577. Moreover, the melting temperature was 52.5 °C in series [2] (cell cycle stage: G1/S) and 51.7 °C in series [2] (cell cycle stage: mitosis). Also, the “solubility change mitosis (log2)” value in series [3] is -0.00378. Moreover, the figures for the thermal stability score in series [4] (setting [5]) and in series [4] (cell cycle stage: mitosis) were -0.0841 and -0.424, respectively.
Regarding “MFGPAKGRHFGVHPAPGFPGGVSQQAAGTKAGPAGAWPVGSRTDTMWRLRCKAKDGTHVLQGLSSRTRVRELQGQIAAITGIAPGGQRILVGYPPECLDLSNGDTILEDLPIQSGDMLIIEEDQTRPRSSPAFTKRGASSYVRETLPVLTRTVVPADNSCLFTSVYYVVEGGVLNPACAPEMRRLIAQIVASDPDFYSEAILGKTNQEYCDWIKRDDTWGGAIEISILSKFYQCEICVVDTQTVRIDRFGEDAGYTKRVLLIYDGIHYDPLQRNFPDPDTPPLTIFSSNDDIVLVQALELADEARRRRQFTDVNRFTLRCMVCQKGLTGQAEAREHAKETGHTNFGEV [YOD1]”, in series [1], the “solubility in G1/S (log2)” value amounted to 0.0787. For the same sequence, the melting temperature in series [2] (cell cycle stage: G1/S) and in series [2] (cell cycle stage: mitosis) was 50.2 °C each time. In series [3], the “solubility change mitosis (log2)” value is 0.0334. For the same sequence, the thermal stability score in series [4] (setting [5]) amounted to 0.646; in series [4] (cell cycle stage: mitosis) it was 1.06.
Regarding “MFGRSRSWVGGGHGKTSRNIHSLDHLKYLYHVLTKNTTVTEQNRNLLVETIRSITEILIWGDQNDSSVFDFFLEKNMFVFFLNILRQKSGRYVCVQLLQTLNILFENISHETSLYYLLSNNYVNSIIVHKFDFSDEEIMAYYISFLKTLSLKLNNHTVHFFYNEHTNDFALYTEAIKFFNHPESMVRIAVRTITLNVYKVSLDNQAMLHYIRDKTAVPYFSNLVWFIGSHVIELDDCVQTDEEHRNRGKLSDLVAEHLDHLHYLNDILIINCEFLNDVLTDHLLNRLFLPLYVYSLENQDKGGERPKISLPVSLYLLSQVFLIIHHAPLVNSLAEVILNGDLSEMYAKTEQDIQRSSAKPSIRCFIKPTETLERSLEMNKHKGKRRVQKRPNYKNVGEEEDEEKGPTEDAQEDAEKAKGTEGGSKGIKTSGESEEIEMVIMERSKLSELAASTSVQEQNTTDEEKSAAATCSESTQWSRPFLDMVYHALDSPDDDYHALFVLCLLYAMSHNKGMDPEKLERIQLPVPNAAEKTTYNHPLAERLIRIMNNAAQPDGKIRLATLELSCLLLKQQVLMSAGCIMKDVHLACLEGAREESVHLVRHFYKGEDIFLDMFEDEYRSMTMKPMNVEYLMMDASILLPPTGTPLTGIDFVKRLPCGDVEKTRRAIRVFFMLRSLSLQLRGEPETQLPLTREEDLIKTDDVLDLNNSDLIACTVITKDGGMVQRFLAVDIYQMSLVEPDVSRLGWGVVKFAGLLQDMQVTGVEDDSRALNITIHKPASSPHSKPFPILQATFIFSDHIRCIIAKQRLAKGRIQARRMKMQRIAALLDLPIQPTTEVLGFGLGSSTSTQHLPFRFYDQGRRGSSDPTVQRSVFASVDKVPGFAVAQCINQHSSPSLSSQSPPSASGSPSGSGSTSHCDSGGTSSSSTPSTAQSPADAPMSPELPKPHLPDQLVIVNETEADSKPSKNVARSAAVETASLSPSLVPARQPTISLLCEDTADTLSVESLTLVPPVDPHSLRSLTGMPPLSTPAAACTEPVGEEAACAEPVGTAED [CLEC16A]”, in series [1], the “solubility in G1/S (log2)” value was -0.224. Moreover, the figures for the melting temperature in series [2] (cell cycle stage: G1/S) and in series [2] (cell cycle stage: mitosis) were 55.7 °C and 57.4 °C, respectively. In addition, the “solubility change mitosis (log2)” value in series [3] was -0.241. Moreover, the thermal stability score in series [4] (setting [5]) is -1.42; in series [4] (cell cycle stage: mitosis), -1.87.
